Values quoted from earlier work in paper PMC5580235.
Like-named read-outs stand apart in the source and are kept apart here.

Legend:
ICAM-1 (Homo sapiens) [1] = target: ICAM-1 (Homo sapiens) (UniProt P05362)
ICAM-1 (Homo sapiens) [2] = target: ICAM-1 (Homo sapiens) (UniProt P05362); remark: listed apart in the source
ICAM-1 (Homo sapiens) [3] = target: ICAM-1 (Homo sapiens) (UniProt P05362); remark: listed apart in the source

Sequence of ICAM-1 (Homo sapiens) (P05362 28-480): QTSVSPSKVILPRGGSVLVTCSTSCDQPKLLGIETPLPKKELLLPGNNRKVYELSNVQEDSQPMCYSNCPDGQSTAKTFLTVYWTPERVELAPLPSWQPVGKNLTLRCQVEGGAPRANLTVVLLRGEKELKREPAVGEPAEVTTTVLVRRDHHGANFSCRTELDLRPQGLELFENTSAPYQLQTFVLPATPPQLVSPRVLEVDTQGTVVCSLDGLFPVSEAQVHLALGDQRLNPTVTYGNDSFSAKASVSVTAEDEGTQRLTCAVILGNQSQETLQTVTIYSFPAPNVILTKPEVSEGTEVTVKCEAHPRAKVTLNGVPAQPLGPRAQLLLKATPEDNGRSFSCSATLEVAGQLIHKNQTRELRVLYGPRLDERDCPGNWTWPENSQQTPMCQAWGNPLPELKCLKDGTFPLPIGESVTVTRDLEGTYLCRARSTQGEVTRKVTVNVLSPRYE
Sequence of LFA-1 (low affinity form) (P20701 26-1090): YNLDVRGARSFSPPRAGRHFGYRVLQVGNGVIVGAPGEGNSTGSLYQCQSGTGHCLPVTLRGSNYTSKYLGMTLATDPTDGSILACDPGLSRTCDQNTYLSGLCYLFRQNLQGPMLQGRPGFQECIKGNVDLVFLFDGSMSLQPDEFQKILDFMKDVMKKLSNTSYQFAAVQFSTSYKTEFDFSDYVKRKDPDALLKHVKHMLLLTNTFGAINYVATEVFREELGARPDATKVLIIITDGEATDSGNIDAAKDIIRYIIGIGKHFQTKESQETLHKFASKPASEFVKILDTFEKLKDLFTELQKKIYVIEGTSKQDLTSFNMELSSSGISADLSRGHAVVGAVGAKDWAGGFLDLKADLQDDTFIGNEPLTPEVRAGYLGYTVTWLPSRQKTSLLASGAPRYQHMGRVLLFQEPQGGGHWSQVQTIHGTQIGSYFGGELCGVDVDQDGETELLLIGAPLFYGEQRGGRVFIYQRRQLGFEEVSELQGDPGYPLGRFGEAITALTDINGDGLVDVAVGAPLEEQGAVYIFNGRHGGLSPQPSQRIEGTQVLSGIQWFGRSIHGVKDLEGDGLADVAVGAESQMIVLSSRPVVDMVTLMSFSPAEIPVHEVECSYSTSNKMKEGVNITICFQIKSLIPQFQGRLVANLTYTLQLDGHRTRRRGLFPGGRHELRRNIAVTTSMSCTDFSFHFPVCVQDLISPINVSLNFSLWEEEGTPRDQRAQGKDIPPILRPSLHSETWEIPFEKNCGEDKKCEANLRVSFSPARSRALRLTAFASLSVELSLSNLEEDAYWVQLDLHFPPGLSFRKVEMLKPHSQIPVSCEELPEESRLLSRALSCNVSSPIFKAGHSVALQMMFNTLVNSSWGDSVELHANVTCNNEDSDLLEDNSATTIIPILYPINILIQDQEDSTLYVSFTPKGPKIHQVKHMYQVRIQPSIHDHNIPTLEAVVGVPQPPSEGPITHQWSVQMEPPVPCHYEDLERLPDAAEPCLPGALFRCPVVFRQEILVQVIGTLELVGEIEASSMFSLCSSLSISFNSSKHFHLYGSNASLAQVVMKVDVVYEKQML
Sequence of LFA-1 (low affinity form) (P05107 23-700, further chain): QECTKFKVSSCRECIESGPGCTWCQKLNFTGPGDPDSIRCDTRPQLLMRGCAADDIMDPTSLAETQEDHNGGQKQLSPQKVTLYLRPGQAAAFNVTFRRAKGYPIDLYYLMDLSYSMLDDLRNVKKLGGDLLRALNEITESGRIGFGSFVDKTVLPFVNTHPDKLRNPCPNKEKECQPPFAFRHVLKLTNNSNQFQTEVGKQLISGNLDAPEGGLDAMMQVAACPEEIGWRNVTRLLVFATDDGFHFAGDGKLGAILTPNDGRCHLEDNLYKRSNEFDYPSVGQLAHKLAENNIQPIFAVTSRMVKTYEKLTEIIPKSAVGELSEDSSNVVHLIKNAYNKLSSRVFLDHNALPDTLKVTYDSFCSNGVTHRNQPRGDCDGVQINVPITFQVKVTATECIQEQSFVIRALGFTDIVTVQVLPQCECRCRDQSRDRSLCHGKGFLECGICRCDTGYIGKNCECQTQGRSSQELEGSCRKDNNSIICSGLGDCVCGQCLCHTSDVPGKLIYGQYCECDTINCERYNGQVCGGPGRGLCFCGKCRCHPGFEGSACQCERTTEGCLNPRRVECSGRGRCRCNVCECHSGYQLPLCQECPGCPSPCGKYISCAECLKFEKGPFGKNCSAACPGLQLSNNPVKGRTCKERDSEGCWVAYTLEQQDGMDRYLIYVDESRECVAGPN
Sequence of LFA-1 (high affinity form) (P20701 26-1090): as the sequence (P20701 26-1090) above
Sequence of LFA-1 (high affinity form) (P05107 23-700, further chain): as the sequence (P05107 23-700, further chain) above
Sequence of LFA-1 (intermediate affinity form) (P20701 26-1090): as the sequence (P20701 26-1090) above
Sequence of LFA-1 (intermediate affinity form) (P05107 23-700, further chain): as the sequence (P05107 23-700, further chain) above

**Q.** Which Kd (ICAM-1 (Homo sapiens) [1]) does the source give for “LFA-1 (high affinity form) (from UniProt P20701)” here?
**A.** Its Kd is 0.15 µM.

**Q.** With “LFA-1 (intermediate affinity form) (from UniProt P20701)” as the substance, how does the Kd (ICAM-1 (Homo sapiens) [2]) read?
**A.** Its Kd is 15 µM.

**Q.** Which Kd (ICAM-1 (Homo sapiens) [3]) does the source give for “LFA-1 (low affinity form) (from UniProt P20701)” here?
**A.** The Kd was 1500 µM.
